# Numbered stars: 1 amine (or outer) side, 2 acyl side, 3 side chain; on linkers, the order of the positions; unused ones are H or OH. Square brackets hold non-standard residues; d marks the D form. Side chains are listed from the residue outwards. * marks the point of attachment. C20 diacid = O=C(O)CCCCCCCCCCCCCCCCCCC(=O)*; γGlu = O=C(O)[C@H](CCC(=O)[*:2])N[*:1]
# T1: human calcitonin receptor (human, UniProt P30988 25-474)
# T1 construct: whole, on cells; Assay VII: membranes on SPA beads; also called hCT-R; hCTR
# T1 sequence (looked up): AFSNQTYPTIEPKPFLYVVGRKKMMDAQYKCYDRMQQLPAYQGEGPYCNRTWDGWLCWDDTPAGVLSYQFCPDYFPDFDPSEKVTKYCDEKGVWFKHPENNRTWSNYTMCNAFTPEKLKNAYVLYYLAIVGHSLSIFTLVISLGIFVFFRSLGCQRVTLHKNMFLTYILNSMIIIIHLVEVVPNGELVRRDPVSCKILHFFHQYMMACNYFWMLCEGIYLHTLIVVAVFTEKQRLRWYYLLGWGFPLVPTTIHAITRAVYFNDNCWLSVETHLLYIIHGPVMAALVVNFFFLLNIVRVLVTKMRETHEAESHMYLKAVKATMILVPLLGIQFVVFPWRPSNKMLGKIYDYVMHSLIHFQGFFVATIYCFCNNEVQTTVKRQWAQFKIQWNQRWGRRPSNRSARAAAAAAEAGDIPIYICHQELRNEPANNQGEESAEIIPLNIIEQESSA
# T2: human amylin receptor (amylin 3(a) receptor: human calcitonin receptor with RAMP-3) (human, UniProt P30988 25-474; O60896 24-148, limits assumed)
# T2 construct: whole, on cells; Assay V: membranes of the Amylin 3(a)/CRE-luc BHK cells on SPA beads; also called hAmylin-R
# T2 sequence (looked up) 1: T1 sequence (looked up)
# T2 sequence (looked up) 2: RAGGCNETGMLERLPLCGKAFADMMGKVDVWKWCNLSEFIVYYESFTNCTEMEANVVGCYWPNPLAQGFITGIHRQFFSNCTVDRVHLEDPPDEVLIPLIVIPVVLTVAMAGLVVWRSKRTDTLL
# B1: [N-terminal(C20 diacid-gGlu), des1, 15e, 30S, 31G]mimylin (peptide)
# peptide: {C20 diacid-γGlu}-ASELSTAALGRLS[dE]ELHELATLPRTETGSGSP-NH2
# SMILES: CC(C)C[C@H](NC(=O)[C@H](C)NC(=O)[C@H](C)NC(=O)[C@@H](NC(=O)[C@H](CO)NC(=O)[C@H](CC(C)C)NC(=O)[C@H](CCC(=O)O)NC(=O)[C@H](CO)NC(=O)[C@H](C)NC(=O)CC[C@H](NC(=O)CCCCCCCCCCCCCCCCCCC(=O)O)C(=O)O)[C@@H](C)O)C(=O)NCC(=O)N[C@@H](CCCNC(=N)N)C(=O)N[C@@H](CC(C)C)C(=O)N[C@@H](CO)C(=O)N[C@H](CCC(=O)O)C(=O)N[C@@H](CCC(=O)O)C(=O)N[C@@H](CC(C)C)C(=O)N[C@@H](Cc1c[nH]cn1)C(=O)N[C@@H](CCC(=O)O)C(=O)N[C@@H](CC(C)C)C(=O)N[C@@H](C)C(=O)N[C@H](C(=O)N[C@@H](CC(C)C)C(=O)N1CCC[C@H]1C(=O)N[C@@H](CCCNC(=N)N)C(=O)N[C@H](C(=O)N[C@@H](CCC(=O)O)C(=O)N[C@H](C(=O)NCC(=O)N[C@@H](CO)C(=O)NCC(=O)N[C@@H](CO)C(=O)N1CCC[C@H]1C(N)=O)[C@@H](C)O)[C@@H](C)O)[C@@H](C)O
# notes: mimylin derivative; des1 = residue 1 deleted; lower case e = D-form of Glu; also called Ex. #67; 67
# B2: [N-terminal(C20 diacid-gGlu), des1, 30S, 31G, 33H]mimylin (peptide)
# peptide: {C20 diacid-γGlu}-ASELSTAALGRLSAELHELATLPRTETGSGSH-NH2
# SMILES: CC(C)C[C@H](NC(=O)[C@H](C)NC(=O)[C@H](C)NC(=O)[C@@H](NC(=O)[C@H](CO)NC(=O)[C@H](CC(C)C)NC(=O)[C@H](CCC(=O)O)NC(=O)[C@H](CO)NC(=O)[C@H](C)NC(=O)CC[C@H](NC(=O)CCCCCCCCCCCCCCCCCCC(=O)O)C(=O)O)[C@@H](C)O)C(=O)NCC(=O)N[C@@H](CCCNC(=N)N)C(=O)N[C@@H](CC(C)C)C(=O)N[C@@H](CO)C(=O)N[C@@H](C)C(=O)N[C@@H](CCC(=O)O)C(=O)N[C@@H](CC(C)C)C(=O)N[C@@H](Cc1c[nH]cn1)C(=O)N[C@@H](CCC(=O)O)C(=O)N[C@@H](CC(C)C)C(=O)N[C@@H](C)C(=O)N[C@H](C(=O)N[C@@H](CC(C)C)C(=O)N1CCC[C@H]1C(=O)N[C@@H](CCCNC(=N)N)C(=O)N[C@H](C(=O)N[C@@H](CCC(=O)O)C(=O)N[C@H](C(=O)NCC(=O)N[C@@H](CO)C(=O)NCC(=O)N[C@@H](CO)C(=O)N[C@@H](Cc1c[nH]cn1)C(N)=O)[C@@H](C)O)[C@@H](C)O)[C@@H](C)O
# notes: mimylin derivative; des1 = residue 1 deleted; also called Ex. #60; 60
# B3: [N-terminal(acetyl), des1, 4K(C20 diacid-gGlu), 30S, 31G]mimylin (peptide)
# peptide: Ac-ASK([γGlu-C20 diacid])LSTAALGRLSAELHELATLPRTETGSGSP-NH2
# notes: mimylin derivative; des1 = residue 1 deleted; also called Ex. #68; 68
# B4: [N-terminal(acetyl), des1, 19K(C20 diacid-gGlu), 30S, 31G]mimylin (peptide)
# peptide: Ac-ASELSTAALGRLSAELHK([γGlu-C20 diacid])LATLPRTETGSGSP-NH2
# notes: mimylin derivative; des1 = residue 1 deleted; also called Ex. #70; 70
# B5: [N-terminal(C20 diacid-gGlu), des1, 23Y, 30S, 31G, 32A]mimylin (peptide)
# peptide: {C20 diacid-γGlu}-ASELSTAALGRLSAELHELATYPRTETGSGAP-NH2
# SMILES: CC(C)C[C@H](NC(=O)[C@H](C)NC(=O)[C@H](C)NC(=O)[C@@H](NC(=O)[C@H](CO)NC(=O)[C@H](CC(C)C)NC(=O)[C@H](CCC(=O)O)NC(=O)[C@H](CO)NC(=O)[C@H](C)NC(=O)CC[C@H](NC(=O)CCCCCCCCCCCCCCCCCCC(=O)O)C(=O)O)[C@@H](C)O)C(=O)NCC(=O)N[C@@H](CCCNC(=N)N)C(=O)N[C@@H](CC(C)C)C(=O)N[C@@H](CO)C(=O)N[C@@H](C)C(=O)N[C@@H](CCC(=O)O)C(=O)N[C@@H](CC(C)C)C(=O)N[C@@H](Cc1c[nH]cn1)C(=O)N[C@@H](CCC(=O)O)C(=O)N[C@@H](CC(C)C)C(=O)N[C@@H](C)C(=O)N[C@H](C(=O)N[C@@H](Cc1ccc(O)cc1)C(=O)N1CCC[C@H]1C(=O)N[C@@H](CCCNC(=N)N)C(=O)N[C@H](C(=O)N[C@@H](CCC(=O)O)C(=O)N[C@H](C(=O)NCC(=O)N[C@@H](CO)C(=O)NCC(=O)N[C@@H](C)C(=O)N1CCC[C@H]1C(N)=O)[C@@H](C)O)[C@@H](C)O)[C@@H](C)O
# notes: mimylin derivative; des1 = residue 1 deleted; also called Ex. #81; 81
# B6: [N-terminal(acetyl), des1, 16K(C20 diacid-gGlu), 30S, 31G]mimylin (peptide)
# peptide: Ac-ASELSTAALGRLSAK([γGlu-C20 diacid])LHELATLPRTETGSGSP-NH2
# notes: mimylin derivative; des1 = residue 1 deleted; also called Ex. #69; 69
# B7: [N-terminal(C20 diacid-gGlu), des1, 30S, 31G, 33Y]mimylin (peptide)
# peptide: {C20 diacid-γGlu}-ASELSTAALGRLSAELHELATLPRTETGSGSY-NH2
# SMILES: CC(C)C[C@H](NC(=O)[C@H](C)NC(=O)[C@H](C)NC(=O)[C@@H](NC(=O)[C@H](CO)NC(=O)[C@H](CC(C)C)NC(=O)[C@H](CCC(=O)O)NC(=O)[C@H](CO)NC(=O)[C@H](C)NC(=O)CC[C@H](NC(=O)CCCCCCCCCCCCCCCCCCC(=O)O)C(=O)O)[C@@H](C)O)C(=O)NCC(=O)N[C@@H](CCCNC(=N)N)C(=O)N[C@@H](CC(C)C)C(=O)N[C@@H](CO)C(=O)N[C@@H](C)C(=O)N[C@@H](CCC(=O)O)C(=O)N[C@@H](CC(C)C)C(=O)N[C@@H](Cc1c[nH]cn1)C(=O)N[C@@H](CCC(=O)O)C(=O)N[C@@H](CC(C)C)C(=O)N[C@@H](C)C(=O)N[C@H](C(=O)N[C@@H](CC(C)C)C(=O)N1CCC[C@H]1C(=O)N[C@@H](CCCNC(=N)N)C(=O)N[C@H](C(=O)N[C@@H](CCC(=O)O)C(=O)N[C@H](C(=O)NCC(=O)N[C@@H](CO)C(=O)NCC(=O)N[C@@H](CO)C(=O)N[C@@H](Cc1ccc(O)cc1)C(N)=O)[C@@H](C)O)[C@@H](C)O)[C@@H](C)O
# notes: mimylin derivative; des1 = residue 1 deleted; also called Ex. #59; 59
# B8: [N-terminal(C20 diacid-gGlu), des1, 23Y, 30S, 31G]mimylin (peptide)
# peptide: {C20 diacid-γGlu}-ASELSTAALGRLSAELHELATYPRTETGSGSP-NH2
# SMILES: CC(C)C[C@H](NC(=O)[C@H](C)NC(=O)[C@H](C)NC(=O)[C@@H](NC(=O)[C@H](CO)NC(=O)[C@H](CC(C)C)NC(=O)[C@H](CCC(=O)O)NC(=O)[C@H](CO)NC(=O)[C@H](C)NC(=O)CC[C@H](NC(=O)CCCCCCCCCCCCCCCCCCC(=O)O)C(=O)O)[C@@H](C)O)C(=O)NCC(=O)N[C@@H](CCCNC(=N)N)C(=O)N[C@@H](CC(C)C)C(=O)N[C@@H](CO)C(=O)N[C@@H](C)C(=O)N[C@@H](CCC(=O)O)C(=O)N[C@@H](CC(C)C)C(=O)N[C@@H](Cc1c[nH]cn1)C(=O)N[C@@H](CCC(=O)O)C(=O)N[C@@H](CC(C)C)C(=O)N[C@@H](C)C(=O)N[C@H](C(=O)N[C@@H](Cc1ccc(O)cc1)C(=O)N1CCC[C@H]1C(=O)N[C@@H](CCCNC(=N)N)C(=O)N[C@H](C(=O)N[C@@H](CCC(=O)O)C(=O)N[C@H](C(=O)NCC(=O)N[C@@H](CO)C(=O)NCC(=O)N[C@@H](CO)C(=O)N1CCC[C@H]1C(N)=O)[C@@H](C)O)[C@@H](C)O)[C@@H](C)O
# notes: mimylin derivative; des1 = residue 1 deleted; also called Ex. #56; 56
# Target: T1, human calcitonin receptor
# Test: SPA competition vs 125I-calcitonin, membranes with human CTR (Assay VII)
# Method: The binding assay was performed using scintillation proximity assay (SPA) beads (RPNQ0001) from PerkinElmer® and cell membranes prepared from a BHK tk'ts 13 cell line was stably transfected with the human calcitonin receptor and a CRE-responsive luciferase reporter gene. Membranes were prepared in the following way; the cells were rinsed with PBS and incubated with Versene for approximately 5 min before harvesting. The cells were flushed with PBS and the cell-suspension was centrifuged for 5 min at 1000 rpm.
# (§1) EDTA (pH 7.4, buffer 2). The resulting pellet was resuspended in buffer 2 and protein concentration was tested (BCA protein Assay, Pierce). The homogenate was kept cold during the whole procedure. The membranes were kept at −80° C. until use. Assay was performed in a 384 well Optiplate (PerkinElmer®) in a total volume of 40 ul. Membranes were mixed with SPA beads. Final concentration of membranes 35 ng/μL final and Final concentration of SPA beads was 0.05 mg/well. Test-compounds were dissolved in DMSO and further diluted in assay buffer (50 mM Hepes, pH 7.4, 1 mM CaCl2, 5 mM MgCl2, 0.1% OA and 0.02% Tween20). […] Samples were analyzed on TopCounter™ (Packard). The IC₅₀ was calculated using (one site binding competition analysis) GraphPad Prism5 as a measure of receptor affinity.
row,IC50,Binder
1,0.022 nM,B1
2,0.034 nM,B2
3,0.01 nM,B3
4,0.077 nM,B4
5,0.102 nM,B5
6,0.046 nM,B6
7,0.113 nM,B7
8,0.07 nM,B8

# Target: T2, human amylin receptor (amylin 3(a) …)
# Test: SPA competition vs 125I-rat amylin, membranes with human CTR + RAMP-3 (Assay V)
# Method: as §1, with “The binding assay was performed using scintillation proximity assay (SPA) beads (RPNQ0001) from PerkinElmer and cell membranes from the Amylin 3(a)/CRE-luc cells (as described in Assay (II)) were used. Membranes were prepared in the following way; the cells were rinsed with PBS and incubated with Versene for approximately 5 min before harvesting. The cells were flushed with PBS and the cell-suspension was centrifuged for 5 min at 1000 rpm. […] The” for “EDTA (pH 7.4, buffer 2). The”, “use. The assay” for “use. Assay”, “Optiplate (PerkinElmer)” for “Optiplate (PerkinElmer®)”, “and” for “and Final concentration of”
row,IC50,Binder
1,0.029 nM,B1
2,0.057 nM,B2
3,0.05 nM,B3
4,0.206 nM,B4
5,0.141 nM,B5
6,0.074 nM,B6
7,0.243 nM,B7
8,0.394 nM,B8

# From patent US20160272683A1 (Novo Nordisk, published 2016)
